Target: His-tag GafD lectin (Escherichia coli) (UniProt Q47341)
Assay: concentration dependent nIR fluorescence loading curves, ks against concentration, GafD on Ni-NTA SWNT/chitosan sensor

Sequence of His-tag GafD lectin (Escherichia coli) (Q47341 23-200 limits assumed): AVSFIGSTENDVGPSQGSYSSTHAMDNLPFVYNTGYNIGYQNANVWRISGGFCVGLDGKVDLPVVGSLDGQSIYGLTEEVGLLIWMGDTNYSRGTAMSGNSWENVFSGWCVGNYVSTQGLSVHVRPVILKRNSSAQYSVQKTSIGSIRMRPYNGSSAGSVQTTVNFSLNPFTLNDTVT

Substance: murine produced anti His-tag antibody (Sigma H1029)
- Kd: 4 µM
- koff: 0.0082 s⁻¹

Reference: patent publication US10215752
